The numbers were not newly measured in article PMC2917178, which cites them from elsewhere.

As a reminder, the pKa is the pH at which an ionisable group is half protonated.

This data set concerns the target Lys66 (UniProt position 148, FTKKMKENAKK). Particulars: native (folded) state.

As to “Staphylococcal nuclease V66K variant (Staphylococcus aureus; V66K)”, the pKa was 6.4.
